Experimental data as given in PMC12167799, “The role of human Shu complex in ATP-dependent regulation of RAD51 filaments during homologous recombination–associated DNA damage response”.
Numbering of substitutions follows the chain as printed.

Key:
[1] = target: T1, SWSAP1 (hSWS1-SWSAP1, WT);hSWS1 (Homo sapiens;Homo sapiens, UniProt Q6NVH7;Q19AV6 22-250;1-140, |); assay: fluorescence polarization; no nucleotide; FPA: 5 nM 6-FAM DNA, 37 C, 2 mM nucleotide where stated (buffer not given in material); EMSA: 0.05 uM 6-FAM DNA, 5%/15% native PAGE; RAD51 filaments: 2 mM ATP; details: protein: recombinant;recombinant, tags: N-terminal 6xHis-TEV, cleaved;none, copies: 1;1
T1 sequence 1: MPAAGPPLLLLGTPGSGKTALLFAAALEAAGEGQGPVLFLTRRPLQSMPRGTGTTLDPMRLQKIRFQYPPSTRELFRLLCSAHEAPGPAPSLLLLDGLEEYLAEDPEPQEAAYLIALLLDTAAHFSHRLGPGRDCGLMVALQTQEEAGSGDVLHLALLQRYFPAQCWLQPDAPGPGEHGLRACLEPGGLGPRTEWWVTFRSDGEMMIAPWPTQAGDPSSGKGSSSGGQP
T1 sequence 2: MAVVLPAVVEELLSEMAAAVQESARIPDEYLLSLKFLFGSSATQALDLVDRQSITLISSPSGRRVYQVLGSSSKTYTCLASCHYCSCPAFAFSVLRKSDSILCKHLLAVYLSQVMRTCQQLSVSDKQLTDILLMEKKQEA

[2] = target: RAD51;SWSAP1 D96A (Walker B);hSWS1 (Homo sapiens;Homo sapiens;Homo sapiens, UniProt Q06609;Q6NVH7;Q19AV6 1-339;22-250;1-140, |D117A|); assay: competition (fluorescence intensity); 2 mM ATP; D96A stabilizes 5' end like WT; FPA: 5 nM 6-FAM DNA, 37 C, 2 mM nucleotide where stated (buffer not given in material); EMSA: 0.05 uM 6-FAM DNA, 5%/15% native PAGE; RAD51 filaments: 2 mM ATP; details: protein: recombinant;recombinant;recombinant; tags: none;N-terminal 6xHis-TEV, cleaved;none; label: 5' 6-FAM
RAD51 [3] = target: T2, RAD51 (Homo sapiens, UniProt Q06609 1-339); assay: competition (fluorescence intensity); 2 mM ATP; 100x unlabeled dT39 lowers signal ~30%; FPA: 5 nM 6-FAM DNA, 37 C, 2 mM nucleotide where stated (buffer not given in material); EMSA: 0.05 uM 6-FAM DNA, 5%/15% native PAGE; RAD51 filaments: 2 mM ATP; details: protein: recombinant, tags: none, chain copies: 10
[4] = target: T3, RAD51;SWSAP1 (hSWS1-SWSAP1, WT);hSWS1 (Homo sapiens;Homo sapiens;Homo sapiens, UniProt Q06609;Q6NVH7;Q19AV6 1-339;22-250;1-140, ||); assay: competition (fluorescence intensity); 2 mM ATP; Shu inhibits exchange at 5' end; FPA: 5 nM 6-FAM DNA, 37 C, 2 mM nucleotide where stated (buffer not given in material); EMSA: 0.05 uM 6-FAM DNA, 5%/15% native PAGE; RAD51 filaments: 2 mM ATP; details: protein: recombinant;recombinant;recombinant; tags: none;N-terminal 6xHis-TEV, cleaved;none; label: 5' 6-FAM
[5] = target: T4, SWSAP1 K18A (Walker A);hSWS1 (Homo sapiens;Homo sapiens, UniProt Q6NVH7;Q19AV6 22-250;1-140, K39A|); assay: fluorescence polarization; 2 mM ADP; FPA: 5 nM 6-FAM DNA, 37 C, 2 mM nucleotide where stated (buffer not given in material); EMSA: 0.05 uM 6-FAM DNA, 5%/15% native PAGE; RAD51 filaments: 2 mM ATP; details: protein: recombinant;recombinant, tags: N-terminal 6xHis-TEV, cleaved;none, copies: 1;1
T4 sequence 1: T1 sequence 1 with K18A
T4 sequence 2: T1 sequence 2

[6] = target: T4, SWSAP1 K18A (Walker A);hSWS1; assay: fluorescence polarization; 2 mM ATP; FPA: 5 nM 6-FAM DNA, 37 C, 2 mM nucleotide where stated (buffer not given in material); EMSA: 0.05 uM 6-FAM DNA, 5%/15% native PAGE; RAD51 filaments: 2 mM ATP; details: protein: recombinant;recombinant, tags: N-terminal 6xHis-TEV, cleaved;none, copies: 1;1
[7] = target: T4, SWSAP1 K18A (Walker A);hSWS1; assay: fluorescence polarization; no nucleotide; FPA: 5 nM 6-FAM DNA, 37 C, 2 mM nucleotide where stated (buffer not given in material); EMSA: 0.05 uM 6-FAM DNA, 5%/15% native PAGE; RAD51 filaments: 2 mM ATP; details: protein: recombinant;recombinant, tags: N-terminal 6xHis-TEV, cleaved;none, copies: 1;1
[8] = target: T5, SWSAP1 D96A (Walker B);hSWS1 (Homo sapiens;Homo sapiens, UniProt Q6NVH7;Q19AV6 22-250;1-140, D117A|); assay: as above; details: protein: recombinant;recombinant, tags: N-terminal 6xHis-TEV, cleaved;none, copies: 1;1
T5 sequence 1: T1 sequence 1 with D96A
T5 sequence 2: T1 sequence 2

[9] = target: T3, RAD51;SWSAP1 (hSWS1-SWSAP1, WT);hSWS1; assay: DNase I protection; 2 mM ATP; Shu increases digestion of filament; FPA: 5 nM 6-FAM DNA, 37 C, 2 mM nucleotide where stated (buffer not given in material); EMSA: 0.05 uM 6-FAM DNA, 5%/15% native PAGE; RAD51 filaments: 2 mM ATP; details: protein: recombinant;recombinant;recombinant, tags: none;N-terminal 6xHis-TEV, cleaved;none
RAD51 [10] = target: T2, RAD51; assay: DNase I protection; 2 mM ATP; FPA: 5 nM 6-FAM DNA, 37 C, 2 mM nucleotide where stated (buffer not given in material); EMSA: 0.05 uM 6-FAM DNA, 5%/15% native PAGE; RAD51 filaments: 2 mM ATP; details: protein: recombinant, tags: none, chain copies: 10
[11] = target: T1, SWSAP1 (hSWS1-SWSAP1, WT);hSWS1; assay: fluorescence polarization; 2 mM ADP; FPA: 5 nM 6-FAM DNA, 37 C, 2 mM nucleotide where stated (buffer not given in material); EMSA: 0.05 uM 6-FAM DNA, 5%/15% native PAGE; RAD51 filaments: 2 mM ATP; details: protein: recombinant;recombinant, tags: N-terminal 6xHis-TEV, cleaved;none, copies: 1;1
[12] = target: T5, SWSAP1 D96A (Walker B);hSWS1; assay: as above; details: protein: recombinant;recombinant, tags: N-terminal 6xHis-TEV, cleaved;none, copies: 1;1
[13] = target: T1, SWSAP1 (hSWS1-SWSAP1, WT);hSWS1; assay: fluorescence polarization; 2 mM ATP; FPA: 5 nM 6-FAM DNA, 37 C, 2 mM nucleotide where stated (buffer not given in material); EMSA: 0.05 uM 6-FAM DNA, 5%/15% native PAGE; RAD51 filaments: 2 mM ATP; details: protein: recombinant;recombinant, tags: N-terminal 6xHis-TEV, cleaved;none, copies: 1;1
[14] = target: T5, SWSAP1 D96A (Walker B);hSWS1; assay: as above; details: protein: recombinant;recombinant, tags: N-terminal 6xHis-TEV, cleaved;none, copies: 1;1
[15] = label: 5' 6-FAM on strand 1, blunt
[16] = label: 3' 6-FAM on strand 1, 3' overhang 20 nt
[17] = label: 3' 6-FAM on strand 1, blunt
[18] = label: 3' 6-FAM on strand 1, 5' overhang 20 nt
[19] = label: 3' 6-FAM on strand 1, fork 1:2, 19 bp duplex, 20 nt arms

T3 sequence (Q06609 whole entry, one chain of several): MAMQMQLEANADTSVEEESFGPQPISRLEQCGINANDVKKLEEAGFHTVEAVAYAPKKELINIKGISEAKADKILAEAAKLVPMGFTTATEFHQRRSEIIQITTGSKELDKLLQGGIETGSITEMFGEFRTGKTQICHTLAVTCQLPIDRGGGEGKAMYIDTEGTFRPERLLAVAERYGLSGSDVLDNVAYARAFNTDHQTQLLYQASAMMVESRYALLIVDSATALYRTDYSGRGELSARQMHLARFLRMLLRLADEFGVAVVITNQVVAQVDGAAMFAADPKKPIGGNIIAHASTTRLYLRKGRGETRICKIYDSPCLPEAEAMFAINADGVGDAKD
T2 sequence (Q06609 whole entry): as the sequence (Q06609 whole entry, one chain of several) above
RAD51;SWSAP1 D96A (Walker B);hSWS1, sequence (Q06609 whole entry, stated change not applied, one chain of several): as the sequence (Q06609 whole entry, one chain of several) above

B1: ds26 (dsDNA)
DNA 1: ACTGCCCTTACAGCACAGCGGTTTTT
DNA 2: AAAAACCGCTGTGCTGTAAGGGCAGT
B1 was tested. Which Kd [1, 15] did it give?
The Kd was 18.8 ± 0.7 µM.

B2: *5'-(T)39 (ssDNA)
DNA: TTTTTTTTTTTTTTTTTTTTTTTTTTTTTTTTTTTTTTT
Does B2 bind [2]?
Result: binds

Does B2 bind (RAD51 [3]; label: 5' 6-FAM)?
Result: binds

Does B2 bind [4]?
Result: binds

B3: *3'-(T)39 (ssDNA)
DNA: B2 DNA
Does B3 bind (RAD51 [3]; label: 3' 6-FAM)?
Result: binds

B4: ss21 (ssDNA)
DNA: ACTTACAGCACAGCGGTTTTT
B4 was tested. Which Kd ([1]; label: 5' 6-FAM) did it give?
The Kd was 10.1 ± 0.9 µM.

B5: 3'-overhang (dsDNA)
DNA 1: CTTGACAAGCTTGCGCACT
DNA 2: AGTGCGCAAGCTTGTCAAGGCACTTTTTTTTTTTTTTTT
Which results are given for B5?
Kd [5, 16]: 8.7 ± 0.4 µM; Kd [6, 16]: 7.3 ± 0.6 µM; Kd [7, 16]: 7.1 ± 0.2 µM; Kd [1, 16]: 14.9 ± 0.7 µM; Kd [8, 16]: 11 ± 0.8 µM

B6: ds21 (dsDNA)
DNA 1: ACTTACAGCACAGCGGTTTTT
DNA 2: AAAAACCGCTGTGCTGTAAGT
With B6 as the binder, how does the Kd [1, 15] read?
Its Kd is 43.7 ± 0.4 µM.

B7: ss31 (ssDNA)
DNA: ACTGCCCTTACAGCACAGCGGTTTTTTTTTT
B7 was tested. Which Kd ([1]; label: 5' 6-FAM) did it give?
Its Kd is 5.7 ± 0.3 µM.

B8: *5'-(T)30 (ssDNA)
DNA: TTTTTTTTTTTTTTTTTTTTTTTTTTTTTT
Does B8 bind ([9]; label: 5' 6-FAM)?
Result: binds

Does B8 bind (RAD51 [10]; label: 5' 6-FAM)?
Result: binds

B9: ss26 (ssDNA)
DNA: ACTGCCCTTACAGCACAGCGGTTTTT
Which Kd ([1]; label: 5' 6-FAM) does the source give for B9 here?
Its Kd is 9.9 ± 0.6 µM.

B10: ss39 (ssDNA)
DNA: TTTTTTTTTTTTTTTTTTTTCTTGACAAGCTTGCGCACT
What does the source list for B10?
Kd ([5]; label: 3' 6-FAM): 7.4 ± 0.2 µM; Kd ([11]; label: 3' 6-FAM): 3.2 ± 0.2 µM; Kd ([12]; label: 3' 6-FAM): 3.9 ± 0.3 µM; Kd ([6]; label: 3' 6-FAM): 9.5 ± 0.7 µM; Kd ([13]; label: 3' 6-FAM): 6.9 ± 0.7 µM; Kd ([14]; label: 3' 6-FAM): 7.8 ± 0.4 µM; Kd ([7]; label: 3' 6-FAM): 9.9 ± 0.4 µM; Kd ([1]; label: 3' 6-FAM): 11.2 ± 0.4 µM; Kd ([8]; label: 3' 6-FAM): 10.4 ± 0.7 µM

B11: ds39 (dsDNA)
DNA 1: B10 DNA
DNA 2: AGTGCGCAAGCTTGTCAAGAAAAAAAAAAAAAAAAAAAA
B11 was tested. Which Kd [5, 17] did it give?
Its Kd is 8.73 ± 0.7 µM.

What about the Kd [6, 17] of the same binder?
Its Kd is 10 ± 0.9 µM.

What about the Kd [7, 17] of the same binder?
Its Kd is 12.2 ± 1 µM.

What about the Kd [1, 17] of the same binder?
The Kd was 19.2 ± 0.9 µM.

And the Kd [8, 17]?
The Kd was 13.6 ± 0.6 µM.

B12: 5'-overhang (dsDNA)
DNA 1: B10 DNA
DNA 2: AGTGCGCAAGCTTGTCAAG
Which results are given for B12?
Kd [5, 18]: 3.4 ± 0.3 µM; Kd [11, 18]: 8.9 ± 0.4 µM; Kd [12, 18]: 5.1 ± 0.2 µM; Kd [6, 18]: 3.9 ± 0.2 µM; Kd [13, 18]: 3.6 ± 0.1 µM; Kd [14, 18]: 4.3 ± 0.4 µM; Kd [7, 18]: 3.9 ± 0.3 µM; Kd [1, 18]: 3.6 ± 0.2 µM; Kd [8, 18]: 3.8 ± 0.2 µM

B13: Fork (dsDNA)
DNA 1: B10 DNA
DNA 2: B5 DNA 2
How did the Kd [5, 19] turn out when B13 was run?
The Kd was 7 ± 0.8 µM.

What about the Kd [11, 19] of the same binder?
The Kd was 25.6 ± 0.7 µM.

And the Kd [12, 19]?
Its Kd is 33.9 ± 0.9 µM.

What about the Kd [6, 19] of the same binder?
The Kd was 8.2 ± 0.4 µM.

And the Kd [13, 19]?
Its Kd is 18.6 ± 0.7 µM.

What about the Kd [14, 19] of the same binder?
Its Kd is 22.4 ± 0.4 µM.

What about the Kd [7, 19] of the same binder?
Its Kd is 4.6 ± 0.4 µM.

What about the Kd [1, 19] of the same binder?
Its Kd is 7.7 ± 0.5 µM.

What about the Kd [8, 19] of the same binder?
The Kd was 7.4 ± 0.4 µM.

B14: *3'-(T)30 (ssDNA)
DNA: B8 DNA
Does B14 bind ([9]; label: 3' 6-FAM)?
Result: binds

Does B14 bind (RAD51 [10]; label: 3' 6-FAM)?
Result: binds
